Reference: the nanobody polyreactivity screen of Harvey et al. (2022)

Test: yeast display, Sf9 membrane polyspecificity reagent, FACS + sequencing; frameworks hold sequencing errors
Outline: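 Nanobodies came from a synthetic yeast display library in Saccharomyces cerevisiae BJ5465, induced with galactose for 36–48 hours and stained for 1 hour at 4 °C with 10% biotinylated, detergent-solubilized Sf9 membrane reagent. Cells were enriched on streptavidin microbeads and then FACS-sorted, with low and high (top ~1%) gates set on anti-HA fluorescence for expression and streptavidin fluorescence for reagent binding. Each polyreactivity label reflects the gate a clone came from. Genes were amplified by colony PCR, sequenced by MiSeq 2 × 250 and filtered by CDR length.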

Question: For “QVQLVESGGGLVQAGGSLRLSCAASGSTFTRYAMGWYRQAPGKERELVAAISRGGSTNYADSVKGRFTISRDNAKNTVYLQMNSLKPEDTAVYYCAKGSNRSRGYYWGQGTQVTVSS”, which “polyreactivity (PSR sort gate)” value is on record?
Answer: The value was “high polyreactivity”.

Question: For “QVQLVESGGGLVQAGGSLRLSCAASGRTFYDNAMGWYRQAPGKERELVAVISTSGARTYYADSVKGRFTISRDNAKNTVYLQMNSLKPEDTAVYYCAARRYKYSWDSGYDLYYWGQGTQVTVSS”, which “polyreactivity (PSR sort gate)” value is on record?
Answer: The value was “high polyreactivity”.

Question: Which “polyreactivity (PSR sort gate)” value does the source give for “QVQLVESGGGLVQAGGSLRLSCAASGNTFIYYAMGWYRQAPGKERELVAAITWSGGSTYYADSVKGRFTISRDNAKNTVYLQMNSLKPEDTAVYYCAKFTHNYYYWGQGTQVTVSS” here?
Answer: The value was “high polyreactivity”.

Question: With “QVQLVESGGGLVQAGGSLRLSCAASGFIFGYNALGWYRQAPAKERELVAAITWIGGTTYYADSVKGRFTISRDNAKNTVYLQLNSLKPEDTAVYYCARQRSFGRSSYSHRYDYWGQGNQVTVSS” as the sequence, how does the “polyreactivity (PSR sort gate)” value read?
Answer: The value was “high polyreactivity”.

Question: Which “polyreactivity (PSR sort gate)” value does the source give for “QVQLEESGGGLVQAGGSLRLSCAASGSIFSPNAMGWYRQAPGKERELVAAIDTRDGTTYYADSVKGRFTISRDNAKNTVYLQMNSLKPEDTAVYYCAADQLVGERDYWGQGTQVTVSS” here?
Answer: Its value is “low polyreactivity”.

Question: For “QVQLVESGGGLVQAGGSLRLSCAASGRTFGQYAMGWYRQAPGKERELVAAITTRGGSTYYADSVKGRFTISRDNAKNTVYLQMNSLKPEDTAVYYCIADYPVKRRRGRDYWGQGTQVTVSS”, which “polyreactivity (PSR sort gate)” value is on record?
Answer: The value was “high polyreactivity”.

Question: For “QVQLVESGGGLVQAGGSLRLSCAASGRTFYKNTMGWYRQAPGKERELVATIYQRGGSTYYADSVKGRFTISRDNAKNTVYLQMNSLKREDTAVYYCNARKYTQSIHYDYWGQGTQVTVSS”, which “polyreactivity (PSR sort gate)” value is on record?
Answer: Its value is “high polyreactivity”.

Question: With “QVQLVDSGGGLVQAGGSLRLSCAASGSIFSFYAMGGSRQAPGKERELVAAIDGGGSTDYADSVKGRFTISRDHAKYTVYLQMNSLKPEDTAVYDCAARDIYHYDWGQGTQVTVSS” as the sequence, how does the “polyreactivity (PSR sort gate)” value read?
Answer: Its value is “low polyreactivity”.

Question: For “QVQLVESGGGLDQARGSLRLSCAASGSITTFYAMGWSRQAHGKERELVAAISSSGGSTYYADSVKGRFTISRDNAKNTVYLQMNSLKPEDTAVYSCAAKGYPSRYSYGWYNYWGQGTQVTLSS”, which “polyreactivity (PSR sort gate)” value is on record?
Answer: The value was “high polyreactivity”.

Question: Which “polyreactivity (PSR sort gate)” value does the source give for “QDQLVESGGGLVQAGGILRLSCAASGSTFFHYAMGWYRQAPGQEREFVAANDSNGGSTYYADSVKGRFSISRDNAKNTVYLQMTCLKPEETAVNYCAADDLAEFEYDYWGQGTQVTVSS” here?
Answer: The value was “low polyreactivity”.

Question: For “QVQLVESGGGLVQAGGSLRLSCAASGRIFYRNAMGWYRQAPGKEREFVAAISSGGSTYYADSVKGRFTISRDNAKNTVYLQMNSLKPEDTAVYYCATRSPERRVYYTYSGLFDYWGQGTQVTVSS”, which “polyreactivity (PSR sort gate)” value is on record?
Answer: Its value is “high polyreactivity”.

Question: Which “polyreactivity (PSR sort gate)” value does the source give for “QVQLVESGGGLVQAGGSLRLSCAASGSTFDGYTMGWYRQAPGKERELVAGISWSGTSTYYADSVKGRFTISRDNAKNTVYLQMNSLKPEDTAVYYCAADRYWFRLYTAGVTHRFGYWGQGTQVTVSS” here?
Answer: The value was “low polyreactivity”.

Question: With “QVQLVESGGGLVQAGGSLRLTCAASGRTFARNAMGWYRQAPGKERELVAAITRSGGSTYYADSVKGRFTISRDNAKNTVYLQMNSLKPEDTAVYYCAADVRTYRGYYWKAFDYWGQGTQVTVSS” as the sequence, how does the “polyreactivity (PSR sort gate)” value read?
Answer: The value was “high polyreactivity”.

Question: With “QVQLVESGGGLVQAGGSLRLSCAASGSTFAYNAMGWYRQAPGKERELVAAISFSGGSTYYADSVKGRFTLSRDNAKNTVYLQMNSLKQEDTAVYYCAKRGYPSTNGRQEGYWGQGTQVTVSS” as the sequence, how does the “polyreactivity (PSR sort gate)” value read?
Answer: Its value is “low polyreactivity”.

Question: Which “polyreactivity (PSR sort gate)” value does the source give for “QVQLVESGGGLVQAGGSLRLSCAASGSIYTNAMGWYRQAPGKERELVAAISWSGGRTYYADSVKGRFTISRDNAKNTVYLQMNSLKPEDTAVYYCNTRGTRIASGHYYWGQGTQVTVSS” here?
Answer: Its value is “high polyreactivity”.

Question: For “QVQLVESGGGLVQAGGSLRLSCAASGIIFEGNVMGWYRQAPGKERELVAAITSDTSTNYADSVKGRFTISRDNAKNSVYLQMNSLKPEDTAVYYCDALRRYPRPNIYGYWGQGTQVTVSS”, which “polyreactivity (PSR sort gate)” value is on record?
Answer: Its value is “low polyreactivity”.

Question: For “QVQLVESGGGLVQERGSLRLSCADSGFIFWYYAMGWDRQAPGKERELVAAISWSGDSTYYADSVKGRFTISRDNANNTVYLQMKSLKPEYTAVYYCAVYEELDVFYNGYDYWGQGTQVTVSS”, which “polyreactivity (PSR sort gate)” value is on record?
Answer: Its value is “high polyreactivity”.

Question: Which “polyreactivity (PSR sort gate)” value does the source give for “QVQLVESVGGLVQAGGSLRLSCPASGITFEQYAMGWYRQAPGKEREWVAAISSNGGITFYADSVKGRFTISRDNAKNTVYLQMNSLKPEDTAVYYCAARLCVTYPYIAYDYWGQGTQVTVSS” here?
Answer: Its value is “high polyreactivity”.

Question: For “QEQLQESGSGLVQAGGSLRLSCAASGNIFRDWVMGWYRQAPGKERELVAAISPGAITYYADSVKGRFTISRDNAKNTVYLQTNSLKPEDTEVYYCAAYYIVEYLHGYWGQGTRVTVSS”, which “polyreactivity (PSR sort gate)” value is on record?
Answer: The value was “low polyreactivity”.

Question: Which “polyreactivity (PSR sort gate)” value does the source give for “QVQVVESGGGLFQAGGSLRLSSAASGSIFARNALGWYRQAPGKERDLVAGITRSTGDTYYADSVKGRFTISRDNAKYTVSFQMNSLKQEDTAVYYCARDGRRTPYKYEYWGQGTQVTVSS” here?
Answer: Its value is “low polyreactivity”.

Question: For “QVQLVESGGGLVQAGGSLRLSCAASGSTFYRYAMGWYRQAPGKERELVAAITRGGGRTYYADSVKGRFTISRDNAKNTVYLQMNSLKPEDTAVYYCNAASPYYDSWGQGTQVTVSS”, which “polyreactivity (PSR sort gate)” value is on record?
Answer: Its value is “high polyreactivity”.

Question: Which “polyreactivity (PSR sort gate)” value does the source give for “QVQLLESGGGLVQAGGSLRLSCAASGSTFWPNAMGWYRQAPGKERELVAAITGGGGTNYADSVKGRFTISRDNAKNTVYLQMNSLKPEDTAVYYCAAKKVNSRSHVKYYYWGQGTQVTVSS” here?
Answer: Its value is “high polyreactivity”.

Question: For “QVQLVESGGGLVQAGGSLRLSCAASGFTFAKYAMGWYRQAPGKERELVAAITNSGCRTYYEDSVKGRFTISRDNAKNTVYLQMNSPKPEDTAVYYCATEQLGGSIYDYWGQGTQVTVSS”, which “polyreactivity (PSR sort gate)” value is on record?
Answer: The value was “high polyreactivity”.

Question: For “QVQLVESGGGLVQAGGSLRLSCAASGFTFHYYDMGWYRQAPGKERELVASISWSGGDTYYADSVKGRFTISRDNAKNTVYLQMNSLKPEDTAVYYCAADPTQEVQYLTPYTYDYWGQGTQVTVSS”, which “polyreactivity (PSR sort gate)” value is on record?
Answer: The value was “low polyreactivity”.

Question: With “QDQLVESGGGLVQAGGSLRLSCAASGSTFVVNAMGWYRQAPGKERELVAAISSSGSSTYADSVKGRFTISRDNEKNTVYLQMNCLKPEDTAVYYCHKTTLLTVEYDYWGQGTQVSVSS” as the sequence, how does the “polyreactivity (PSR sort gate)” value read?
Answer: The value was “low polyreactivity”.

Question: For “QVQLVESGGGLVQAGGSLRLSCAASGRIFARYAMGWYRQAPGKQRELVAAITVSGDNTYYADSVKGRFTISRDNAKNTVYLQMNSLKPEDTAVYYCAVRAVLLFGFFDYDYWGQGTQLTVSS”, which “polyreactivity (PSR sort gate)” value is on record?
Answer: Its value is “low polyreactivity”.

Question: For “QVQLVESGGGSVQAGGSLRLSCAASGIIFWYYTMGWYRQATGKERELVAAISWSSGITYYADSLKGRFTISRDNAKNTVYLQMNSLKPEDTAVYYCSAGYYKGFTLVRVIFDYWGQGTQVTVSS”, which “polyreactivity (PSR sort gate)” value is on record?
Answer: Its value is “low polyreactivity”.

Question: With “QVQLVESGGGLVQAGGSLRLSCAASGFTFGYYAMGWYRQAPGKERELVAAIRSSGGSTYYADSVKGRFTISRDNAKNTVYLQMNSLKPEDTAVYYCAVLYGYRSSSRYGYDSWGQGTQVTVSS” as the sequence, how does the “polyreactivity (PSR sort gate)” value read?
Answer: Its value is “high polyreactivity”.

Question: Which “polyreactivity (PSR sort gate)” value does the source give for “QVQLVESGGGLVQAGGSLRLSCAASGYIFTFYTMGWYRQEPGKERDLVAAISQTGGRTYYADSVKGRFTISRDNAKNTVYLEMNSLKPEDTAVYYCAARSKRLAHDYWGQGTQVTVSS” here?
Answer: Its value is “high polyreactivity”.

Question: For “QVQLVESGGGLVQAGGSLRLSCAASGSIFAWYAMGWYRPAPGKEWELVAVITRGGSTNYADSLKGRFTISRDNAKNTVYLQMNSLKPEDTAVKYCAAGSYYSWYPFDYWGQGTQVTVSS”, which “polyreactivity (PSR sort gate)” value is on record?
Answer: The value was “low polyreactivity”.

Question: Which “polyreactivity (PSR sort gate)” value does the source give for “QVQLVESGGGLVQAGGSLRLSCAASGFTFGDYAMGWYRQAPGKERELVAAISWSGGRTSYADSVKGRFTISRDNAKNTVYLQMNSLKPEDTAVYYCAARYRYAYTSFPFYYWGQGTQVTVSS” here?
Answer: Its value is “high polyreactivity”.

Question: Which “polyreactivity (PSR sort gate)” value does the source give for “QDQHVESGGGLVQAGGSLRLSCAASGRTIGYNAMGLYRQAPGKERELVAAITSSSGSTYYADSVKGRFTISRDNAKNTVYLQMNSLKPEDRAVYYCAAYFRRLLYDYWGQGTHVTVSS” here?
Answer: Its value is “high polyreactivity”.
